Measurements reported in article PMC3951589.

Target: pIICASV-GP2(267–351) (not stated | CAS virus (CASV))
Assay: SEC

Substance: pIICASV-GP2(267–351) (domain or fragment)
- stoichiometry N: 3
